Assay [1] deals with HCC827 tumor cells. Put plainly: HCC827 xenograft in NSG-hHGFki mice. The format is in vivo, mouse. An excerpt: The VH of the cMET variable domain of PB19748 comprises the amino acid sequence of MF8230 (see FIG. 8). […] The VH of the EGFR variable domain of PB19748 comprises the amino acid sequence of MF8233 of FIG. 7. […] In the chosen model, HCC827 tumor cells are engrafted into immunodeficient NOD SCID gamma (NSG) human hepatocyte growth factor knock-in (hHGFki) mice, that express human HGF (ligand for cMET) in place of endogenous mouse HGF. […] They have no T or B cells, lack functional NK cells, and are deficient in cytokine signaling, which allows for better tumor engraftment.
Prior to tumor cell engraftment, the cell cycle of HCC827 cells was boosted by culturing the cells overnight in medium supplemented with 20% fetal bovine serum (FBS) at confluency not exceeding 80%. […] The resulting tumors were measured twice each week using calipers. When the mean tumor volume reached approximately 200 mm^3, the mice were randomized into two groups (4-7 mice per group depending on tumor growth and volume) and drug treatment was started.
Tumor volume was measured twice each week using calipers, and mean tumor volume (and SEM) calculated for each group. When tumor sizes reached 1500 mm^3 mice were euthanized. Treatment was stopped after day 48, and tumor volume in surviving mice was measured up to day 62. […]
As before, tumor volume was monitored and mean tumor volume (and SEM) calculated in each group. All treatments were stopped after day 60, and tumor volume in surviving mice was measured up to day 82.
As before, tumor volume was monitored and mean tumor volume (and SEM) calculated in each group. All treatments were stopped after day 93, and tumor volume in surviving mice was measured up to day […].
In a fourth experiment the effect of a later administration of PB19478 was tested.
On day 51 when the mean tumor volume had clearly passed the 500 mm 3 mark the mice were randomized into two groups. […] As before, tumor volume was monitored and mean tumor volume (and SEM) calculated in each group. All treatments were stopped after day 72.

The subject of assay [2] is cMET and EGFR. The note with it: cited from earlier work.
The test system of assay [3] is tumor cell line H1975. The note with it: H1975 expresses the cMET ligand HGF; cited from earlier work.

`C#Cc1cccc(Nc2ncnc3cc(OCCOC)c(OCCOC)cc23)c1` [erlotinib, reference compound]: in assay [1] (mouse, in vivo), the anti-tumor response result was “able to induce an anti-tumor response”.
Turning to “JNJ-61186372: bispecific cMETxEGFR antibody produced by controlled Fab-arm exchange (Moores et al 2016)”, the “affinity imbalance, greater affinity for cMET than EGFR” value in assay [2] is on record as “approximately 40 ×”. In addition, the activity in vivo result in assay [3] was “active in vivo”.

B1: LY2875358: humanized monoclonal cMET antibody emibetuzumab (antibody, chains of the INN, looked up, V domains shown)
VH: QVQLVQSGAEVKKPGASVKVSCKASGYTFTDYYMHWVRQAPGQGLEWMGRVNPNRRGTTYNQKFEGRVTMTTDTSTSTAYMELRSLRSDDTAVYYCARANWLDYWGQGTTVTVSS
VL: DIQMTQSPSSLSASVGDRVTITCSVSSSVSSIYLHWYQQKPGKAPKLLIYSTSNLASGVPSRFSGSGSGTDFTLTISSLQPEDFATYYCQVYSGYPLTFGGGTKVEIK
Take B1: the anti-tumor response result in assay [1] (antibody 25 mg/kg weekly i.p. plus erlotinib 6 mg/kg daily gavage) is listed as “less effective than PB8532”; in assay [1] (antibody 25 mg/kg weekly i.p. plus erlotinib 6 mg/kg daily gavage, listed as LY3875358), “less effective”; in assay [1] (antibody 25 mg/kg weekly i.p. plus vehicle (without erlotinib)), “less effective than PB8532”; in assay [1] (antibody 25 mg/kg weekly i.p. plus vehicle (without erlotinib), listed as LY3875358), “less effective”.

The values above are taken from US12668638B2, “Antibodies that bind EGFR and cMET” (Merus B.V., priority 2017, dated 2026).
